Test system: Abp1 PPIs
Assay: DHFR-PCA of Abp1 SH3-swapped baits (Fig. 2B-D, S2C, S2F);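 as to Protein-protein interaction distance between Abp1 SH3-swapped baits, to ABP1: Euclidean distance between DHFR-PCA score profiles of the baits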;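 as to Protein-protein interaction distance between Abp1 SH3-swapped baits, to BEM1-2: Euclidean distance between DHFR-PCA score profiles of the baits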;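 as to Protein-protein interaction distance between Abp1 SH3-swapped baits, to BOI1: Euclidean distance between DHFR-PCA score profiles of the baits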;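 as to Protein-protein interaction distance between Abp1 SH3-swapped baits, to BZZ1-1: Euclidean distance between DHFR-PCA score profiles of the baits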
Format: cell-based, Saccharomyces cerevisiae
Outline: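 Interactions were scored by DHFR protein-fragment complementation. DHFR F[1,2]-tagged Abp1 strains, whose SH3 was swapped for yeast or human ortholog domains, were crossed on YPD at 30 °C for 48 h with a 1536-format array of 575 prey-DHFR F[3] strains and 40 negatives, giving four replicates per pair. PCA selection lasted 4 days after double diploid selection.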

[1] = number of PPIs, difference, Abp1 SH3-swapped with the listed SH3, Fig2D,S2F

B1: MYO5 (protein, UniProt Q04439 1-1219, looked up)
Myosin-5: MAILKRGARKKVHQEPAKRSANIKKATFDSSKKKEVGVSDLTLLSKISDEAINENLKKRFLNATIYTYIGHVLISVNPFRDLGIYTDAVMNEYKGKNRLEVPPHVFAIAESMYYNMKSYNENQCVIISGESGAGKTEAAKRIMQYIAAASSTHTESIGKIKDMVLATNPLLESFGCAKTLRNNNSSRHGKYLEIKFNNQFEPCAGNITNYLLEKQRVVSQIKNERNFHIFYQFTKGASDAYRQTFGVQKPEQYVYTAAAGCISAETIDDLQDYQETLKAMRVIGLGQEEQDQIFRMLAAILWIGNVSFIENEEGNAQVRDTSVTDFVAYLLQIDSQLLIKSLVERIMETNHGMKRGSVYHVPLNIVQADAVRDALAKAIYNNLFDWIVSRVNKSLQAFPGAEKSIGILDIYGFEIFEHNSFEQICINYVNEKLQQIFIQLTLKSEQETYEREKIQWTPIKYFDNKVVCDLIEARRPPGIFAAMNDSVATAHADSNAADQAFAQRLNLFTTNPHFDLRSNKFVIKHYAGDVTYDIDGITDKNKDQLQKDLVELIGTTTNTFLATIFPDTVDRESKRRPPTAGDKIIKSANDLVETLSKAQPSYIRTIKPNETKSPNDYDDRQVLHQIKYLGLQENVRIRRAGFAYRQVFEKFVERFYLLSPHCSYAGDYTWQGDTLDAVKYILQDSSIPQQEYQLGVTSVFIKTPETLFALEHMRDRYWHNMAARIQRAWRRFLQRRIDAATKIQRTIRERKEGNKYEKLRDYGTKVLGGRKERRSMSLLGYRAFMGDYLSCNESKSKGAYIKRQVSIKEKVIFSIHGEALHTKFGRSAQRLKKTFLLTPTTLYIVGQTLVQNAMTYTQDYKIDVRNIQAVSLTNLQDDWVAIKLASSGQPDPLINTYFKTELITHLKRLNDKIQIKIGSAIEYQKKPGKLHSVKCQINESAPKYGDIYKSSTISVRRGNPPNSQVHKKPRKKSSISSGYHASSSQATRRPVSIAAAQHVPTAPASRHSKKPAPPPPGMQNKAATRRSVPNPASTLTASQSNARPSPPTAATRATPAATPAAAAMGSGRQANIPPPPPPPPPSSKPKEPMFEAAYDFPGSGSPSELPLKKGDVIYITREEPSGWSLGKLLDGSKEGWVPTAYMKPHSGNNNIPTPPQNRDVPKPVLNSVQHDNTSANVIPAAAQASLGDGLANALAARANKMRLESDDEEANEDEEEDDW
Protein-protein interaction distance between Abp1 SH3-swapped baits, to ABP1 (Abp1 bait with swapped SH3, distance to bait with ABP1 SH3, sheet Fig2C): 12.37 | Protein-protein interaction distance between Abp1 SH3-swapped baits, to BBC1 (distance to Abp1 bait with BBC1 SH3, sheet Fig2C): 12.56 | Protein-protein interaction distance between Abp1 SH3-swapped baits, to BEM1-1 (distance to Abp1 bait with BEM1-1 SH3, sheet Fig2C): 17.04 | Protein-protein interaction distance between Abp1 SH3-swapped baits, to BEM1-2 (distance to Abp1 bait with BEM1-2 SH3, sheet Fig2C): 34.62 | Protein-protein interaction distance between Abp1 SH3-swapped baits, to BOI1 (distance to Abp1 bait with BOI1 SH3, sheet Fig2C): 14.33 | Protein-protein interaction distance between Abp1 SH3-swapped baits, to BOI2 (distance to Abp1 bait with BOI2 SH3, sheet Fig2C): 17.59 | Protein-protein interaction distance between Abp1 SH3-swapped baits, to BUD14 (distance to Abp1 bait with BUD14 SH3, sheet Fig2C): 20.27 | Protein-protein interaction distance between Abp1 SH3-swapped baits, to BZZ1-1 (distance to Abp1 bait with BZZ1-1 SH3, sheet Fig2C): 9.674 | Protein-protein interaction distance between Abp1 SH3-swapped baits, to BZZ1-2 (distance to Abp1 bait with BZZ1-2 SH3, sheet Fig2C): 13.83 | Protein-protein interaction distance between Abp1 SH3-swapped baits, to CDC25 (distance to Abp1 bait with CDC25 SH3, sheet Fig2C): 28.8 | Protein-protein interaction distance between Abp1 SH3-swapped baits, to CTTN (distance to Abp1 bait with CTTN SH3, sheet Fig2C): 14.85 | Protein-protein interaction distance between Abp1 SH3-swapped baits, to CYK3 (distance to Abp1 bait with CYK3 SH3, sheet Fig2C): 29.49 | Protein-protein interaction distance between Abp1 SH3-swapped baits, to DBNL (distance to Abp1 bait with DBNL SH3, sheet Fig2C): 9.722 | Protein-protein interaction distance between Abp1 SH3-swapped baits, to FUS1 (distance to Abp1 bait with FUS1 SH3, sheet Fig2C): 21.47 | Protein-protein interaction distance between Abp1 SH3-swapped baits, to HCLS1 (distance to Abp1 bait with HCLS1 SH3, sheet Fig2C): 10.37 | Protein-protein interaction distance between Abp1 SH3-swapped baits, to HOF1 (distance to Abp1 bait with HOF1 SH3, sheet Fig2C): 33.29 | Protein-protein interaction distance between Abp1 SH3-swapped baits, to HSE1 (distance to Abp1 bait with HSE1 SH3, sheet Fig2C): 10.84 | Protein-protein interaction distance between Abp1 SH3-swapped baits, to LSB1 (distance to Abp1 bait with LSB1 SH3, sheet Fig2C): 7.822 | Protein-protein interaction distance between Abp1 SH3-swapped baits, to LSB3 (distance to Abp1 bait with LSB3 SH3, sheet Fig2C): 8.063 | Protein-protein interaction distance between Abp1 SH3-swapped baits, to MYO3 (distance to Abp1 bait with MYO3 SH3, sheet Fig2C): 5.861 | Protein-protein interaction distance between Abp1 SH3-swapped baits, to MYO5 (distance to Abp1 bait with MYO5 SH3, sheet Fig2C): 0.00 | Protein-protein interaction distance between Abp1 SH3-swapped baits, to NBP2 (distance to Abp1 bait with NBP2 SH3, sheet Fig2C): 19.41 | Protein-protein interaction distance between Abp1 SH3-swapped baits, to PEX13 (distance to Abp1 bait with PEX13 SH3, sheet Fig2C): 7.969 | Protein-protein interaction distance between Abp1 SH3-swapped baits, to PIN3 (distance to Abp1 bait with PIN3 SH3, sheet Fig2C): 6.67 | Protein-protein interaction distance between Abp1 SH3-swapped baits, to RVS167 (distance to Abp1 bait with RVS167 SH3, sheet Fig2C): 7.689 | Protein-protein interaction distance between Abp1 SH3-swapped baits, to SDC25 (distance to Abp1 bait with SDC25 SH3, sheet Fig2C): 35.29 | Protein-protein interaction distance between Abp1 SH3-swapped baits, to SHO1 (distance to Abp1 bait with SHO1 SH3, sheet Fig2C): 10.26 | Protein-protein interaction distance between Abp1 SH3-swapped baits, to SLA1-1 (distance to Abp1 bait with SLA1-1 SH3, sheet Fig2C): 31.36 | Protein-protein interaction distance between Abp1 SH3-swapped baits, to SLA1-2 (distance to Abp1 bait with SLA1-2 SH3, sheet Fig2C): 22.13 | Protein-protein interaction distance between Abp1 SH3-swapped baits, to SLA1-3 (distance to Abp1 bait with SLA1-3 SH3, sheet Fig2C): 7.257 | Protein-protein interaction distance between Abp1 SH3-swapped baits, to YSC84 (distance to Abp1 bait with YSC84 SH3, sheet Fig2C): 8.128 | PPIs gained by Abp1 - SH3-dependent PPIs gained by Abp1 [1]: 27 | SH3-dependent PPIs - SH3-dependent PPIs gained by Abp1 [1]: 16 | SH3-dependent PPIs gained by Abp1 (number of PPIs, Abp1 SH3-swapped with the listed SH3, DHFR-PCA, Fig2D,S2F): 3

Source: PMC7954794, “Protein context shapes the specificity of SH3 domain-mediated interactions in vivo” (Nature Communications, 2021)
